From US5854216A, “Marker for growth hormone-releasing factor receptors” (Universite de Montreal, priority 1996, dated 1998)
Like-named read-outs stand apart in the source and are kept apart here. Blank lines part the entries; values can stand above or below the molecule they belong to. Ends that are not written are not given here. * marks the point of attachment. FITC = O=C1OC2(c3ccc(O)cc3Oc3cc(O)ccc32)c2ccc(NC(=S)*)cc21; X1 = O=C(O)c1cc(C(=O)*)ccc1-c1c2ccc(=O)cc-2oc2cc(O)ccc12

What was measured:
[1] = target: T1, GRF receptors ([^125 I-Tyr^10 ]hGRF(1-44)NH2 binding sites in rat adenopituitary) (Rattus norvegicus, UniProt Q02644); test: Competitive binding assay with [^125 I-Tyr^10 ]hGRF(1-44)NH2 on anterior pituitary homogenates; details: for Relative affinity: ratio IC50 of hGRF(1-29)NH2 /IC50 analogue
T1 construct: from tissue; host or cells: rat anterior pituitary homogenate
T1 sequence (Q02644 23-423 isoform Q02644-2 limits assumed): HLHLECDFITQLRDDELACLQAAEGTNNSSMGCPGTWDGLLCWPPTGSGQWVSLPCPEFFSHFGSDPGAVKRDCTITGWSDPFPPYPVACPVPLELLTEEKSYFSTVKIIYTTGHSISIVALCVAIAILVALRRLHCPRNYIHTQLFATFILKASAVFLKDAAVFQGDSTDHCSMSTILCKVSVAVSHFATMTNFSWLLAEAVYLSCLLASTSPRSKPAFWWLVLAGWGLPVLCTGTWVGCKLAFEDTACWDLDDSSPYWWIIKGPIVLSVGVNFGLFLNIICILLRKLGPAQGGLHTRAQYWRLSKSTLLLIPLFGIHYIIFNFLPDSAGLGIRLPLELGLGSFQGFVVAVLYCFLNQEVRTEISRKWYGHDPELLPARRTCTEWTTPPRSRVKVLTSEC
Outline: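 Rat anterior pituitary homogenates (70 to 75 μg protein) in 50 mM Tris-HCl pH 7.4 with 5 mM EDTA, 5 mM MgCl2, 0.42% BSA were competed with 35-50 pM radioligand against analogues at 0-1000 nM. Non-specific binding defined with 2.4 μM rGRF(1-29)NH2; 60 min at 23° C, stopped by centrifugation, pellet gamma-counted. hGRF(1-29)NH2 run in each experiment as reference.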

[2] = target: T2, GRF receptor (adenylate cyclase activity in rat adenopituitary) (Rattus norvegicus, UniProt Q02644); test: Adenylate cyclase assay on anterior pituitary homogenates (cAMP by HPLC); format: biochemical; details: for IC50: 50% of maximal cAMP accumulation induced by 1 μM hGRF(1-29)NH2; for Relative activity: ratio EC50 of hGRF(1-29)NH2 /EC50 analogue
T2 construct: from tissue; host or cells: rat anterior pituitary homogenate
T2 sequence (Q02644 23-423 isoform Q02644-2 limits assumed): T1 sequence (Q02644 23-423 isoform Q02644-2 limits assumed)
Description: The adenylate cyclase activity Nε-CF-[Lys^31 ]hGRF was performed on anterior pituitary homogenates as previously described (Lefrangois L. and Gaudreau P., J. Chromatogr., 1993, 619:116-120). Briefly, anterior pituitaries (pit.) were dissected out, rinsed and homogenized for 8 sec with a Micro Ultrasonic Cell Disrupter™, in ice-cold 20 mM Tris-HCl buffer (pH 7.5) containing 2 mM MgCl2 and 250 mM sucrose (1 pit./0.5 ml).
Samples of anterior pituitary homogenates (30-40 μg protein) were incubated in 1.5 ml Eppendorf™ tubes with 30 mM Tris-HCl, 5 mM MgCl2, 0.5 mM EGTA, containing 0.5 mM ATP, 1 mM IBMX, 10 μM GTP and an ATP regenerating system consisting of 2 mM creatine phosphate, 0.1 mg/ml creatine kinase and, 0.1 mg/ml myokinase in a final volume of 120 μl. Incubations were initiated by adding 20 μl of the homogenate to the reaction mixture which had previously been equilibrated at 37° C. for 2 min. The reactions were carried out for 8 min at 37° C. and stopped by heating the samples in boiling water for 4 min. Samples were centrifuged (12000 g, 5 min, 4° C.) and supernatants were filtered through 0.45 μm Millex HV4 ™ filters and transferred to autosampler vials for HPLC quantification of cAMP.

[3] = target: T3, GRF receptor of rat adenopituitary (rat, UniProt Q02644-2)
T3 sequence: T1 sequence (Q02644 23-423 isoform Q02644-2 limits assumed)

[4] = target: T3, GRF receptor of rat adenopituitary; test: displacement of 125I-Tyr10 hGRF(1-44)NH2 from rat anterior pituitary homogenate
[5] = Solubility in water or buffer; format: physicochemical; details: distilled water or aqueous buffer
[6] = Storage stability / shelf life; format: physicochemical
[7] = Toxicity (statement only)
[8] = target: T3, GRF receptor of rat adenopituitary; remark: listed apart in the source
[9] = target: T3, GRF receptor of rat adenopituitary; test: displacement of 125I-Tyr10 hGRF(1-44)NH2 from rat anterior pituitary homogenate; remark: listed apart in the source
Description: (§1) The binding of [^125I-Tyr^10]hGRF(1–44)NH_2 was performed on anterior pituitary homogenates as previously described (Gaudreau P. et al., J. Biol. Chem., 1992, 35:1864–1869). Briefly, anterior pituitaries (pit.) were dissected out, rinsed and homogenized for 8 sec with a Micro Ultrasonic Cell Disrupter™, in ice-cold 50 mM Tris-HCl buffer, pH 7.4, containing 5 mM MgCl_2 and 5 mM EDTA (1 pit./0.5 ml). These homogenates were used immediately. Competition studies were performed using 35–50 pM [^125I-Tyr^10]hGRF(1–44)NH_2 as radio-ligand, 50 µl of homogenate (70 to 75 µg of protein), and increasing concentrations of Nε-CF-[Lys^31]hGRF or other GRF analogues (0–1000 nM) or with 2.4 µM rGRF(1–29)NH_2 for determination of non-specific binding, in a total volume of 300 µl of Tris-HCl buffer, pH 7.4, containing 5 mM EDTA, 5 mM MgCl_2 and 0.42% BSA. Incubations were carried out at 23° C. for 60 min and stopped by centrifugation (12,000 g, 5 min, at 4° C.). The radioactivity content in the pellet was measured by gamma counting. The affinity of hGRF(1–29)NH_2 was tested in each experiment to assess the validity of the assay and determine the relative affinity of the analogues.
75 to 97% of their initial concentration are recovered at the end of the binding assay (Gaudreau P. et al., J. Biol. Chem., 1992, 35:1864–1869). The Ligand computerized program was used to analyse competition curves of all the GRF analogues reported in Tables 4, 7 and 11, and to determine their IC$50$ and Hill coefficient. The Hill values indicate that all these peptides bind to the high and low affinity GRF binding sites found in the anterior pituitary.

[10] = target: T3, GRF receptor of rat adenopituitary; test: as above; remark: listed apart in the source
Description: as §1
75 to 97% of their initial concentration are recovered at the end of the binding assay (Gaudreau P. et al., J. Biol. Chem., 1992, 35:1864–1869). […]

[11] = Table 11, mean±SD of 2 or mean±SE of 3 experiments for analogues, mean±SE of 11 for hGRF(1-29)NH2
[12] = Table 12, mean±SD of 2 or mean±SE of 3 to 6 experiments, 10 for hGRF(1-29)NH2

IC50 [1, 11]: 4.9 ± 3.25 nM
IC50 [2, 12]: 67 ± 24 nM
Molecule: CC[C@H](C)[C@H](NC(=O)[C@H](C)NC(=O)[C@H](CC(=O)O)NC(=O)[C@H](C)NC(=O)[C@@H](N)Cc1ccc(O)cc1)C(=O)N[C@@H](Cc1ccccc1)C(=O)N[C@H](C(=O)N[C@H](CC(N)=O)C(=O)N[C@@H](CO)C(=O)N[C@@H](Cc1ccc(O)cc1)C(=O)N[C@@H](CCCNC(=N)N)C(=O)N[C@@H](CCCCN)C(=O)N[C@H](C(=O)N[C@@H](CC(C)C)C(=O)NCC(=O)N[C@@H](CCC(N)=O)C(=O)N[C@@H](CC(C)C)C(=O)N[C@@H](CO)C(=O)N[C@@H](C)C(=O)N[C@@H](CCCNC(=N)N)C(=O)N[C@@H](CCCCN)C(=O)N[C@H](CC(C)C)C(=O)N[C@@H](CC(C)C)C(=O)N[C@@H](CCC(N)=O)C(=O)N[C@@H](CC(=O)O)C(=O)N[C@H](C(=O)N[C@@H](CCSC)C(=O)N[C@@H](CO)C(=O)N[C@@H](CCCNC(=N)N)C(N)=O)[C@@H](C)CC)C(C)C)[C@@H](C)O [D-Ans^8, D-Leu^22]

IC50 ([1]; Table 4, mean±SD of 2 experiments in triplicate for analogues, mean±SE of 29 experiments for hGRF(1-29)NH2): 2.67 ± 0.12 nM
IC50 ([2]; Table 5, mean±SD of 2 experiments (analogue), mean±SE of 10 (hGRF(1-29)NH2)): 36.7 ± 5.5 nM
Molecule: CC[C@H](C)[C@H](NC(=O)[C@H](C)NC(=O)[C@H](CC(=O)O)NC(=O)[C@H](C)NC(=O)[C@@H](N)Cc1ccc(O)cc1)C(=O)N[C@@H](Cc1ccccc1)C(=O)N[C@H](C(=O)N[C@@H](CC(N)=O)C(=O)N[C@@H](CO)C(=O)N[C@@H](Cc1ccc(O)cc1)C(=O)N[C@@H](CCCNC(=N)N)C(=O)N[C@@H](CCCCN)C(=O)N[C@H](C(=O)N[C@@H](CC(C)C)C(=O)NCC(=O)N[C@@H](CCC(N)=O)C(=O)N[C@@H](CC(C)C)C(=O)N[C@@H](CO)C(=O)N[C@@H](C)C(=O)N[C@@H](CCCNC(=N)N)C(=O)N[C@@H](CCCCN)C(=O)N[C@@H](CC(C)C)C(=O)N[C@@H](CC(C)C)C(=O)N[C@@H](CCC(N)=O)C(=O)N[C@@H](CC(=O)O)C(=O)N[C@H](C(=O)N[C@@H](CCSC)C(=O)N[C@@H](CO)C(=O)N[C@@H](CCCNC(=N)N)C(N)=O)[C@@H](C)CC)C(C)C)[C@@H](C)O [hGRF(1-29)NH2, reference compound]

adenylate cyclase activity: EC50 of cAMP accumulation (column head prints IC50) [3]: 2.88 nM
adenylate cyclase activity: Relative activity (%) against hGRF(1-29)NH2 [3]: 1270%
Relative affinity (%) against hGRF(1-29)NH2 [4]: 774%
Molecule: Ala^8,Ala^9,Ala^15,Ala^22 ! hGRF(1-29)NH2 (from UniProt P01286) (peptide)

adenylate cyclase activity: Relative activity (%) against hGRF(1-29)NH2 [3]: 1410%
Relative affinity (%) against hGRF(1-29)NH2 [4]: 960%
Molecule: Ala^8,Ala^15,Ala^22 ! hGRF(1-29)NH2 (from UniProt P01286) (peptide)

adenylate cyclase activity: Relative activity (%) against hGRF(1-29)NH2 [3]: 21%
Relative affinity (%) against hGRF(1-29)NH2 [4]: 18%
Molecule: D-Ala^2,D-Tyr^10,D-Ala^15 ! hGRF(1-29)NH2 (from UniProt P01286) (peptide)

adenylate cyclase activity: Relative activity (%) against hGRF(1-29)NH2 [3]: 27%
Relative affinity (%) against hGRF(1-29)NH2 [4]: 8%
Molecule: D-Ala^2,D-Tyr^10,D-Ala^15,D-Lys^21 ! hGRF(1-29)NH2 (from UniProt P01286) (peptide)

adenylate cyclase activity: Relative activity (%) against hGRF(1-29)NH2 [3]: 55%
Relative affinity (%) against hGRF(1-29)NH2 [4]: 49%
Molecule: D-Ans^8,D-Leu^22 ! hGRF(1-29)NH2 (from UniProt P01286) (peptide)

affinity for adenopituitary GRF receptors (in words) [1]: high affinity
Hill coef. ([1]; Table 4): 0.55 ± 0.03
Relative affinity ([1]; Table 4): 73 ± 27%
agonist character at the GRF receptor [2]: full GRF receptor agonist
Relative activity ([2]; Table 5): 55 ± 36%
solubility [5]: freely soluble
shelf life [6]: at least one year
stability ([6]; protected from light and maintained at 4° C.): stable
Molecule: H-YADAIFTNSYRKVLGQLSARKLLQDIMSRQK(X1)GESNQERGARARL-NH2 [Nε-5-carboxyfluoresceinyl-[Lys^31]hGRF(1-44)NH2]
toxicity [7]: 100% non-toxic

adenylate cyclase activity: EC50 of cAMP accumulation (column head prints IC50) [3]: 2.63 nM
adenylate cyclase activity: Relative activity (%) against hGRF(1-29)NH2 [3]: 1400%
Relative affinity (%) against hGRF(1-29)NH2 [4]: 1040%
Molecule: Lys^22 ! hGRF(1-29)NH2 (from UniProt P01286) (peptide)

adenylate cyclase activity: EC50 of cAMP accumulation (column head prints IC50) [8]: 67 nM
adenylate cyclase activity: Relative activity (%) against hGRF(1-29)NH2 [8]: 55%
IC50 [4]: 3.65 nM
Relative affinity (%) against hGRF(1-29)NH2 [4]: 73%
Molecule: Nε-5-carboxyfluoresceinyl-Lys^31 !hGRF(1-44)NH2 (from UniProt P01286) (peptide)

IC50 [1, 11]: 0.31 ± 0.14 nM
IC50 [2, 12]: 2.88 ± 1.01 nM
Molecule: YADAIFTAAYRKVLAQLSARKALQDIMSR-NH2 [Ala^8, Ala^9, Ala^15, Ala^22]

IC50 [1, 11]: 0.25 ± 0.07 nM
IC50 [2, 12]: 2.6 ± 0.7 nM
Molecule: YADAIFTASYRKVLAQLSARKALQDIMSR-NH2 [Ala^8, Ala^15, Ala^22]

Hill coef. ([1]; Table 11): 0.62 ± 0.06
IC50 [1, 11]: 0.23 ± 0.04 nM
Relative affinity ([1]; Table 11): 1043 ± 181%
biological activity compared to that of native GRF ([1]; rat adenopituitary): preserved or increased
IC50 [2, 12]: 2.63 ± 0.64 nM
Relative activity ([2]; Table 12): 1395 ± 339%
Molecule: YADAIFTNSYRKVLGQLSARKKLQDIMSR-NH2 [Lys^22]

IC50 [9]: 14 nM
Relative affinity (%) against hGRF(1-29)NH2 [9]: 19%
Molecule: {FITC}-YADAIFTNSYRKVLGQLSARKLLQDIMSR-NH2 [Nα-fluorescein-5-thiocarbamyl!hGRF(1-29)NH2]

Relative affinity (%) against hGRF(1-29)NH2 [9]: 19%
Molecule: {FITC}-YADAIFTNSYRKVLGQLSARKLLQDIMSRQQGESNQERGARARL-NH2 [Nα-fluorescein-5-thiocarbamyl!hGRF(1-44)NH2]

adenylate cyclase activity: EC50 of cAMP accumulation (column head prints IC50) [8]: 36.7 nM
adenylate cyclase activity: Relative activity (%) [8]: 100%
Relative affinity (%) against hGRF(1-29)NH2 [9]: 100%
IC50 [10]: 2.4 nM
Molecule: YADAIFTNSYRKVLGQLSARKLLQDIMSR-NH2 (ligand) [hGRF(1-29)NH2]
